Data on seven substances can be found in patent publication US20040049009A1, “Methods for improving the antagonistic/agonistic properties of peptidic antagonists/agonists of the corticotropin-releasing factor receptor (crfr)” (priority 2000, published 2004).

Test [1] concerns the target rat CRF receptor, type 1 (rat) (UniProt P35353). Kind of test: SPA competition with 0.05 nM [125I-Tyr0]h/rCRF, HEK-293 membranes; 95% CI (0.65-1.4).
Target sequence in this assay (P35353 24-415): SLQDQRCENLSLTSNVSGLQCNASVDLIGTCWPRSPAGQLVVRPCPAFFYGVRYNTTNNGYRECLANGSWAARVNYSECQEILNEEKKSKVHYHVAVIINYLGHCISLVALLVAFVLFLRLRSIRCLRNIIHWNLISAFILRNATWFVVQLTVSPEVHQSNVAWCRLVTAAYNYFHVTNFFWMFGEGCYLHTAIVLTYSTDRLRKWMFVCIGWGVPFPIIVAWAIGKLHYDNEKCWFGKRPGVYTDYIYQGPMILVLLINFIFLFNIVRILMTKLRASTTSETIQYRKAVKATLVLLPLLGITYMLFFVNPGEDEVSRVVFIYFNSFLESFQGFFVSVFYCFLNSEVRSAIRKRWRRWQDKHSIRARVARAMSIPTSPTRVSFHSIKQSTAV
Test [2] concerns the target mouse CRF receptor, type 2β (mouse) (UniProt Q60748). Kind of test: SPA competition with 0.05 nM [125I-Tyr0]Svg, HEK-293 membranes; 95% CI (110-300).
Test [3] shares this target. Kind of test: SPA competition with 0.05 nM [125I-Tyr0]Svg, HEK-293 membranes; 95% CI (15-18).
Test [4] concerns the target rat CRF receptor, type 1 (rat) (UniProt P35353). Kind of test: SPA competition with 0.05 nM [125I-Tyr0]h/rCRF, HEK-293 membranes; 95% CI (0.44-0.79).
Test [5] has as its target T1, rat CRF binding protein C-terminally fused with a His6 sequence (rat) (UniProt P24388).
T1 sequence: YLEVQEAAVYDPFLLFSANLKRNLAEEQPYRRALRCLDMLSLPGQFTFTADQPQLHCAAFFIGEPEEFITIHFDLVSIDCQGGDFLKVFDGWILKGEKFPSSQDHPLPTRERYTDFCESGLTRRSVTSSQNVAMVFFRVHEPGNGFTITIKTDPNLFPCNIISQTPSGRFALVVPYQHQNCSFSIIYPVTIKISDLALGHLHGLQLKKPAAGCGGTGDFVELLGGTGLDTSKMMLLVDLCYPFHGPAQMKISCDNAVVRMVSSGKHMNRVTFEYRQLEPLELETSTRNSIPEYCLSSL
Kind of test: SPA competition with 0.1 nM [125I-Tyr0]h/rCRF, His-tagged rCRFBP; 95% CI (70-90).

In test [6] the target is rat CRF receptor, type 1 (rat) (UniProt P35353).
Test [7] deals with mouse CRF receptor, type 2β (mouse) (UniProt Q60748).
The target is the same in test [8]. Kind of test: SPA competition with 0.05 nM [125I-Tyr0]Svg, HEK-293 membranes; 95% CI (0.24-1.36).
The target of test [9] is T1, rat CRF binding protein C-terminally fused with a His6 sequence (rat). Kind of test: SPA competition with 0.1 nM [125I-Tyr0]h/rCRF, His-tagged rCRFBP; 95% CI (0.9-1.0).
The target is the same in test [10]. Kind of test: SPA competition with 0.1 nM [125I-Tyr0]h/rCRF, His-tagged rCRFBP; 95% CI (76-104).
Test [11] has the same target. Kind of test: SPA competition with 0.1 nM [125I-Tyr0]h/rCRF, His-tagged rCRFBP; 95% CI (0.60-1.3).

pIC50: −log10 of the molar value.

Sequence of ovine corticotropin-releasing factor (ligand) (P01142 148-188): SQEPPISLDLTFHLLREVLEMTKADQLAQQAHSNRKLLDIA

On to “ovine corticotropin-releasing factor (ligand)”, for which the pIC50 was 9.00 in [1] and 6.70 in [2].
Turning to “[Glu^22]h/rCRF (from UniProt P06850) (peptide)”, the pIC50 in test [3] was 7.80; in [4] it was 9.21; in test [5] it was 7.10.
anti-sauvagine-30 (peptide): in test [6], the Rel. intrinsic activity [%] stood at 6.5% and the Rel. potency of antagonist [%] amounted to 2%. In [7], this substance had a Rel. intrinsic activity [%] of 1% and a Rel. potency of antagonist [%] of 99%. Also, the pIC50 in [8] was 9.52.
Consider α-helical CRF^9-41 (peptide), for which, in test [9], the pIC50 is 9.00. In [6], this substance came in with a Rel. intrinsic activity [%] of 19% and a Rel. potency of antagonist [%] of 14%. Besides, in test [7], the Rel. intrinsic activity [%] worked out at 1.4% and the Rel. potency of antagonist [%] was found to be 97%.
With astressin (peptide), the Rel. intrinsic activity [%] in [6] came out at 9.8%; in test [7] it was 1.1%. The values for the Rel. potency of antagonist [%] in [6] and in [7] were 86% and 99%, respectively. The same substance showed a pIC50 in [10] of 7.05.
Regarding “[Ala^21]Svg (from UniProt P01144) (peptide)”, the pIC50 in test [11] was 9.03.
In test [7], [Glu^11,16]Ast (peptide) showed a Rel. intrinsic activity [%] of 1% and a Rel. potency of antagonist [%] of 97%.

The term pIC50 denotes the IC50 on a negative log10 scale, so that one unit is a factor of ten.
